The nature of the data set: yeast display, Sf9 membrane polyspecificity reagent, FACS + sequencing; frameworks hold sequencing errors. The procedure, abridged: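 Polyreactivity labels are assigned by the sorting gate from which each nanobody was recovered. The gates were low and high (top ~1%), set on anti-HA fluorescence for expression and streptavidin fluorescence for reagent binding. Before sorting, galactose-induced (36–48 hours) yeast display cells were stained for 1 hour at 4 °C with 10% biotinylated, detergent-solubilized Sf9 membrane reagent.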
For “QVQIEESGGGLVQAGGSLRLSCAASGSTFGSYAMGWYRQAPGKEREFVAAISKRGGSTYYADSVKGRFTISRDNAKNTVYLQMNSLKPEDTAVYYCNRRQEYYSLHKTFNYWGQGTQVTVSS”, the “polyreactivity (PSR sort gate)” value is reported as “high polyreactivity”.

As to “QVQIEESGGRLVQAGGILRLSCAASGRPFNVNFKGWNRQAPGKEWELVAAIRYTGGSTYADSVKGRFTISRDNAKNTVYLQMNSLKPEDTAVYYCNADTVFPFDHGMDYWGQGTQVTVSS”, the “polyreactivity (PSR sort gate)” value was “low polyreactivity”.

Take “QVQILESGGGLVQAEGSIRLSCDASGRTFRPYAMGWSRQAPGKDRELVAVISYSGVSTYYADSVKGRFTISRDTEQNNVYLLLNSQIPEDTAVYYCLIRFRKTHYDYWGQGSQVTVSS”: the “polyreactivity (PSR sort gate)” value is given as “high polyreactivity”.

Consider “QVQIVDSGAVIVQAGGSLRLSCDASGRIILINAMGWYRQAPGKERELVAAITSSGGSTYYADSVKGRFTISRDNAKNTVYLQMNSLKPEDTAVYYCAAARYSRYDYWGQGTQVTVSS”, for which the “polyreactivity (PSR sort gate)” value is “high polyreactivity”.

Take “QVQIVDSGGGLVQAGCSLRLSCAASGFTFFSYAMGWYRQAHWKERELVAAISRSGGRKYYADSVKGRFTISRDNAKNTVYLLMNSLKPEDTAVYYCAAETKTIPFEYWGQGTQVTVSS”: the “polyreactivity (PSR sort gate)” value is listed as “high polyreactivity”.

Consider “QVQIVDSGGGLVQAGGSLRLSCAASGRIIRGYAMGWYRQAPGKERELVAAITFSGGSPYYADSVKGRFTISRDNAKNTVYLHMNSLKPEDTAVYYCAAAYGGSSYEYNYWGQGTQVTVSS”, for which the “polyreactivity (PSR sort gate)” value is reported as “low polyreactivity”.

Consider “QVQIVDSGGGLVQAGGSLSLSCAASGSTIYRYAMGWYRQAPGKERELVAAITSAGSTNYADSVKGRFTISRDNAKNTVYLQMNSLKPEDTAVYYCAADHGRPYFSYDYWGQGTQVTVSS”, for which the “polyreactivity (PSR sort gate)” value is listed as “low polyreactivity”.

With “QVQIVESGAGLVQAGGSLSLSCAASGSIFHDNAMGWYRQAPGKERELVAAINRGGSRHYADSVKGRFTISRDNAKNTVYFQMNSLKPEDTAVYYCAADGIRPEVGYWGQGTQVTVSS”, the “polyreactivity (PSR sort gate)” value is “low polyreactivity”.

As for “QVQIVESGGCLVQAGGSLRLICAASGNTFRWYDMGWYIQAPRKEREFVADITVRGGSTYYADSVKGRFTISRDNAKNTVYLQMNCLKPEDTAVYYCAVDFRRYPGFDYWGQGTQVTVSS”, the “polyreactivity (PSR sort gate)” value is “low polyreactivity”.

In the case of “QVQIVESGGGIVQAGGSLRLSCAASGLTFHQYTMGWYRQAPGKERELVAAISSGGSTNYADSVKGRFTISRDNAKNTVFLQMNSLKPEDTAVYYCAADKYYFAYDYWGQGTQVNVSS”, the “polyreactivity (PSR sort gate)” value is recorded as “low polyreactivity”.

Consider “QVQIVESGGGLDQAGGSLRLSCADSGSILYYYAMGCYRQAPGKETELVATITDSGDSTYYADSVKGRFTISRDNAKNTVYLQMNSLKPEDTAVYYCAAEGRYFYFTVKMDYWGQGTQVTVSS”, for which the “polyreactivity (PSR sort gate)” value was “low polyreactivity”.

In the case of “QVQIVESGGGLVQAGASLRLSCAASGSISKSYAMGWYRQAPGKERELVAAISWRGGSTYADSVKGRFTISRDNAENTVYSLMNSLKPEDTAVYYCAATNYGSFWGGQSERYDYWGQGTQVTVSS”, the “polyreactivity (PSR sort gate)” value was “low polyreactivity”.

On to “QVQIVESGGGLVQAGCILRLSCAASGSTFYVNAMGWYRQAPGKEWELVAVISTGGSTYYADSVKGRFTISRDNAKNTVYLQMNSLKPEDTAVYYCAKRDLPDCSGTPNVIPFDYWGQGTQVTVSS”, for which the “polyreactivity (PSR sort gate)” value is on record as “low polyreactivity”.

Turning to “QVQIVESGGGLVQAGGRLRLSCAASGFTLYRYAMGWYRQAPGKEREFVAAITRTGGTTYYADSVKGRFTISRDNAKNTVYLQMNSLKPEDTAVYYCAAGANAWYSYRYDYWGQGTQVTVSS”, the “polyreactivity (PSR sort gate)” value was “high polyreactivity”.

On to “QVQIVESGGGLVQAGGRLRLSCAASGGIFKTYPMGWYRQAPGKERELVARINSRGGRTYYADSVKGRFTISRDYAKKTVYLQMNSLKPEATAVYYCAVRNPRYFNEYDYWGQGTQVTVSS”, for which the “polyreactivity (PSR sort gate)” value is reported as “low polyreactivity”.

“QVQIVESGGGLVQAGGSLRFSCAASGRTFGTNTMGWYRQAPGKERELVATISSSSGSTYYADSVKGRFTISRDNAKNTVYLQMNSLKPEDTAVYYCAALSRWRYKRYDYWGQGTQVTVSS”: the “polyreactivity (PSR sort gate)” value was “high polyreactivity”.

With “QVQIVESGGGLVQAGGSLRISCAASGFTFRYYVMGWYRQAPGKEREFVAAISRSGGITYADSVKGRFTISRDNAKNTVYLQMNSLKPEDTAVYYCNAKSRTGYGRGDYWGQGTQVTVSS”, the “polyreactivity (PSR sort gate)” value was “high polyreactivity”.

With “QVQIVESGGGLVQAGGSLRISCAASGFTFYPYTMGWYRQAPGKEREFVAAISWNCGSTYYADSVKGRFTISCDNAKNTVYLQMNSLKPEDSAVYYCAKRSYRSSARELDYWGQGTQVTVSS”, the “polyreactivity (PSR sort gate)” value is reported as “low polyreactivity”.

In the case of “QVQIVESGGGLVQAGGSLRISCAASGRTFVYNTMGWSRQAPGKERELVAAITDRGTSTFYADSVKGRFTISRDNAKNTVDLQMNSLKPEDTAVYYCAKDWLVTEFDYWAQGTQVTVSS”, the “polyreactivity (PSR sort gate)” value is listed as “low polyreactivity”.

Consider “QVQIVESGGGLVQAGGSLRISCAASGRTLRYNTMGWSRKAPGKERELVAAISIRGGSTYYADSVKGRFTISRDNAKYTVYLQMISLKAEDTAVYYCNVVFQKAARIVEVDYWGQGTQVSVSS”, for which the “polyreactivity (PSR sort gate)” value is given as “high polyreactivity”.

Turning to “QVQIVESGGGLVQAGGSLRISCAPSGLIFAYYAMGRYRQAPGKERELVAAISSVGSTYYADSVKGRFTISRDNAKNTVYLQMNSLKPEDTAVYYCAAALYPYYWPEYNYWGQGTQVNVSS”, the “polyreactivity (PSR sort gate)” value is recorded as “high polyreactivity”.

As for “QVQIVESGGGLVQAGGSLRLRCAASGLTFYVYVMGWYRQAPGKEREFVAAISYDGDSTYYADSVKGRFTISRDNAKNTVFFQMNSLIAEDTAVYYCNADRYPYWGYDYWGQGTQVTVSS”, the “polyreactivity (PSR sort gate)” value is reported as “low polyreactivity”.

Take “QVQIVESGGGLVQAGGSLRLRCAASGSIFSTYAMGWYRQEPGKERELVADISGRVGSTYYADSVKGRFTISRDNAKNTVYLQMNSLKPEDTAVYYCAAALDFWPGYEYYYWGQGTQVTVSS”: the “polyreactivity (PSR sort gate)” value is “low polyreactivity”.

With “QVQIVESGGGLVQAGGSLRLSCAASGFIFGIYDMGWYRQAPGKERELYADSVKGRFTISRDNAKNTVYLQMNSVKPEDTAVYYCNRAQGVHTYVYRYGYWGQGTQVTESS”, the “polyreactivity (PSR sort gate)” value is recorded as “low polyreactivity”.

Regarding “QVQIVESGGGLVQAGGSLRLSCAASGFIFVFNAMGWYRQAPGKERELVAAINGGDITNYADSVKGRFTISRDNAKNTVYLQMNSLKPEDTAVYYCAADGEDSLWTGYDYDYWGQGNQVTVSS”, the “polyreactivity (PSR sort gate)” value was “low polyreactivity”.

For “QVQIVESGGGLVQAGGSLRLSCAASGFTFPHNAMGWYRQAPGKERELVAAITSSGGSTYYADSVKGRFTISRDNAKNPVYLEMNSLKPEDTAVYYCAAYWAYGGYESWGQGTQVTVSS”, the “polyreactivity (PSR sort gate)” value is “high polyreactivity”.

With “QVQIVESGGGLVQAGGSLRLSCAASGFTFVINDMGWYRQAPGKERELVADITSGGDTYYADSVKGRFTISRDNAKNTVYLQMNSLKPEDTAVYYCAADIYPDWIYLLYGYWGQGTQVTVSS”, the “polyreactivity (PSR sort gate)” value is “low polyreactivity”.

As to “QVQIVESGGGLVQAGGSLRLSCAASGITFTVYAMGWYRQAPGKVRELVAAINSGSSTNYADSVKGRFTISRDNAKNTVYLQMNSLNPEDTAVYYCAASYRKLPDKKRYGYWGQGTQVTVSS”, the “polyreactivity (PSR sort gate)” value is “high polyreactivity”.

As to “QVQIVESGGGLVQAGGSLRLSCAASGNTISYYDMGWYRQAPGKERELVADISSGGSTYYADSLKGRFTISRDNAKNTVYLQMNSLKPEDTAVYYCNAVVYIRGTAGTYYYWGQGTQVTVSS”, the “polyreactivity (PSR sort gate)” value is listed as “high polyreactivity”.

As for “QVQIVESGGGLVQAGGSLRLSCAASGRIFGPYPMGWYRQAHVKERELVAAISCRGSSTYYADSVKGRFSISRDYAKNTVYLHMIILKPEDTAVFYCAKYPTYSYDYWGQGTQVTVSS”, the “polyreactivity (PSR sort gate)” value is reported as “high polyreactivity”.

(Values after the nanobody polyreactivity screen of Harvey et al. (2022).)
